Source: patent US20230143582A1

Biological target: Wnt receptors on the cell surface of the HEK293 TCF9-SEAP reporter cell line
Experiment: cell-based or functional assay

- ED50 in the HEK293 TCF9-Secreted Alkaline Phosphatase (SEAP) Wnt-responsive reporter assay, lot DLGC02: 0.221 mg/L
- ED50 in the HEK293 TCF9-Secreted Alkaline Phosphatase (SEAP) Wnt-responsive reporter assay, lot RSK51: 0.145 mg/L
- ED50 in the HEK293 TCF9-Secreted Alkaline Phosphatase (SEAP) Wnt-responsive reporter assay, lot RSK69: 0.191 mg/L
Substance: recombinant human Wnt3a protein (from UniProt P56704 19-352) (ligand)
